Consider five substances from article PMC5664961.

Assay [1] concerns the target 6His-KCTD17 BTB domain (residues G20-K131), N-terminal hexahistidine tag kept (human). The assay can be described thus: SEC-MALS; BTB domains alone, injected at 50 µM; Shodex KW-803; 50 mM HEPES pH 7.5, 150 mM NaCl, 1 mM TCEP. In general terms: In gel filtration, larger molecules generally elute earlier.
For assay [2] the target is unchanged. Briefly: SAXS; BTB domains alone, ~750 µM monomer; 50 mM HEPES, 150 mM NaCl, 0.5 mM TCEP; curves compared with those calculated from the crystal structures.
For assay [3] the target is unchanged. Briefly: crystal structure; BTB domains alone, sitting-drop vapour diffusion at 20 and 4°C, data at 100 K.
Assay [4] has the same target. Briefly: native MS; 6His-KCTD17 at 2 mg/ml exchanged into 50 mM ammonium acetate pH 6.5; electrospray, Agilent 6530 QTOF.
Assay [5] shares this target. The assay can be described thus: crystal structure; BTB domains alone, sitting-drop vapour diffusion at 20 and 4°C, data at 100 K. The source holds these as a separate data set.
Assay [6] addresses 6xHis-tagged KCTD17 BTB + CTD multi-domain construct (residues G20-Q220), tag kept (human). The assay can be described thus: SEC; KCTD17 constructs alone, 6xHis-tagged or tag-cleaved; UV 280 nm traces; various running buffers (pH, salt).
The target of assay [7] is KCTD17 BTB + CTD multi-domain construct (residues G20-Q220), tag cleaved (human). The assay can be described thus: SEC; KCTD protein alone and mixed with Cul3 NTD at a molar ratio of 1 : 1; UV 280 nm traces; injected at 50 µM; 50 mM HEPES pH 7.5, 150 mM NaCl, 1 mM TCEP.
For assay [8], the target named is human Cul3 N-terminal domain (NTD, residues M1-L388) with the engineered mutations I342R and L346D (human) (UniProt Q13618). The description is as above.
Chain of human Cul3 N-terminal domain (NTD, residues M1-L388) with the engineered mutations I342R and L346D (human) (Q13618 1-388 I342R/L346D): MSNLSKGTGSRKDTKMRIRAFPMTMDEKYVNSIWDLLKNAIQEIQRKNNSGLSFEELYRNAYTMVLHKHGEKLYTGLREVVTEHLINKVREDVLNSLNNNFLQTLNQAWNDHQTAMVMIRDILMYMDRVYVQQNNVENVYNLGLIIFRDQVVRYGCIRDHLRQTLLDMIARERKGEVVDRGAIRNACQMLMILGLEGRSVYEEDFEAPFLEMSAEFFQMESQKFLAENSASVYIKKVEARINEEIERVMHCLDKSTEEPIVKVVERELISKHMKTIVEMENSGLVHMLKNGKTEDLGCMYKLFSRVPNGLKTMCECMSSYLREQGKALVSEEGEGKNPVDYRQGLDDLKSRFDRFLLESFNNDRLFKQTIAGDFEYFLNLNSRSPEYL
Assay [9] has as its target T1, KCTD17 BTB domain (residues G20-K131) as used in ITC (human).
T1 sequence (Q8N5Z5 20-131, looked up): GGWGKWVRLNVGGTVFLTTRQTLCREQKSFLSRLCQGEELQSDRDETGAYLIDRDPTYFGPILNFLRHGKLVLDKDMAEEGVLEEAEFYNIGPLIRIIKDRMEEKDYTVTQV
Briefly: ITC; KCTD17 in the cell, titrated with Cul3 NTD from the syringe; 15°C; 50 mM HEPES pH 7.5, 150 mM NaCl, 1 mM TCEP, 5% glycerol; single-binding site model.

In assay [10] the target is KCTD17 BTB + CTD multi-domain construct (residues G20-Q220) (human). Briefly: ITC; KCTD17 in the cell, titrated with Cul3 from the syringe; 15°C; 50 mM HEPES pH 7.5, 150 mM NaCl, 1 mM TCEP, 5% glycerol; single-binding site model.
In assay [11] the target is T2, KCTD17 BTB domain (residues G20-K131) (human).
T2 sequence (Q8N5Z5 20-131, looked up): T1 sequence (Q8N5Z5 20-131, looked up)
Described as above.

The target in assay [12] is human SHKBP1 BTB domain (residues G18-S120) (human) (UniProt Q8TBC3). Briefly: SEC; KCTD protein alone and mixed with Cul3 NTD at a molar ratio of 1 : 1; UV 280 nm traces; injected at 50 µM; 50 mM HEPES pH 7.5, 150 mM NaCl, 1 mM TCEP.

As to “6His-KCTD17 BTB domain (residues G20-K131), N-terminal hexahistidine tag kept (domain or fragment)”, the stoichiometry N in assay [1] is 60; in assay [2] it was 60; in [3], 60; in assay [4] it was 60; in [5], 5.
Consider “6xHis-tagged KCTD17 BTB + CTD multi-domain construct (residues G20-Q220), tag kept (domain or fragment)”, for which, in assay [6], the stoichiometry N turned out to be 60.
As to “KCTD17 BTB + CTD multi-domain construct (residues G20-Q220), tag cleaved (domain or fragment)”, in assay [7], the stoichiometry N stood at 5. Moreover, the stoichiometry N (KCTD : Cul3 (5 : 5)) in assay [8] was 1.
Consider “human Cul3 N-terminal domain (NTD, residues M1-L388) with the engineered mutations I342R and L346D (from UniProt Q13618 1-388) (domain or fragment)”, for which the Kd in assay [9] is 7 nM. Further, in assay [10], the Ka was 8.66e+07 M⁻¹, the Kd came out at 12 nM and the stoichiometry N amounted to 2.3. This substance also yielded a Ka in [11] of 1.41e+08 M⁻¹.
With “human SHKBP1 BTB domain (residues G18-S120) (from UniProt Q8TBC3 18-120) (domain or fragment)”, the stoichiometry N in [12] came out at 5.

One may read the stoichiometry N as the number of molecules, sites or subunits per partner or assembly. In general, Kd refers to the constant that tells how readily two partners part at equilibrium.
